From US10421785B2, “Delta receptor agonist peptides and use thereof” (BAR-ILAN UNIVERSITY, priority 2016, dated 2019)
Entries after “also recorded” stand apart in the source; their conditions may differ. Where no end group is shown, it is not given here.

How the values were obtained:
Sprague-Dawley rats = test: Cue-induced cocaine-seeking behavioral test after forced abstinence
C6 cells membrane (DOR) = molecular target: T1, C6 cells membrane (DOR) (Rattus norvegicus, UniProt P33533); test: Microscope validation of GNP-peptide binding to C6 cells; type: cell-based
T1 construct: delta opioid receptor expressed by the C6 cells; endogenous in cells; host or cells: C6 glioma cells
T1 sequence (P33533 whole entry): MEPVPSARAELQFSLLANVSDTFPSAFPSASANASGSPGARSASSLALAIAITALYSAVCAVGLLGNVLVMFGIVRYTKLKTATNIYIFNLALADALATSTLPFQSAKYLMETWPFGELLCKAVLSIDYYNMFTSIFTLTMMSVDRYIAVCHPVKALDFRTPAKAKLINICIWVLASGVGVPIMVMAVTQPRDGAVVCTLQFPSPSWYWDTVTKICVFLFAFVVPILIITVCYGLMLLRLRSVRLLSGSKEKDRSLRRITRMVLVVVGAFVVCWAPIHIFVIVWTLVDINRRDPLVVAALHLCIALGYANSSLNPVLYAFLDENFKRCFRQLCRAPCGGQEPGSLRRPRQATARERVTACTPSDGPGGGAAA
Method: (§1) C6 cells (1×10^6) were cultured in 5 ml glucose-free DMEM medium containing 5% FCS, 0.5% Penicillin and 0.5% Glutamine. Then, excess amounts of GNPs were added and incubated with cells for 30 minutes at 37° C.
Fluorescent coated (Rhodamine B, Sigma, Israel) GNP-peptidl were incubated with C6 cells for 30 min at 37° C. The cells were subsequently washed three times in PBS prior to confocal imaging using Leica TCS SP5 with Acousto-Optical Beam Splitter microscope to acquire fluorescent and bright field images.
A Nikon i50 microscope (Tokyo, Japan) equipped with a hyperspectral imaging system (CRI, USA) was used to obtain dark-field images (20× magnification) in order to assess nanoparticle uptake.

μ-opioid receptor = molecular target: T2, μ-opioid receptor (Rattus norvegicus, UniProt P33535); test: Competitive flow cytometry assay of free peptides against DAMGO-FITC on C6 cells; type: binding; conditions: 2 nM DAMGO-FITC
T2 construct: 50% expressed the μ-opioid receptor; endogenous in cells; host or cells: C6 glioma cells
T2 sequence (P33535 whole entry): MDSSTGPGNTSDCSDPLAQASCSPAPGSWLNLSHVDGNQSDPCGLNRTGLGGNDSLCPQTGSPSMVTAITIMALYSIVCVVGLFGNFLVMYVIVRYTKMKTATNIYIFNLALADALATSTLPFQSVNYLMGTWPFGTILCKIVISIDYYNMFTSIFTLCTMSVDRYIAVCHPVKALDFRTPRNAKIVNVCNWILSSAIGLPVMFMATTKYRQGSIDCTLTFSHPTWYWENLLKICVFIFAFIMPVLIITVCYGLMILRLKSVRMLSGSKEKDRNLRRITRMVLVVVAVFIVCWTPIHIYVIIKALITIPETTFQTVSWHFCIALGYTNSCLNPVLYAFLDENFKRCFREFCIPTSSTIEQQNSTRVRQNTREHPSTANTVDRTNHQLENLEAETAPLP
Method: (§2) The derived peptides were synthesized (Pepmic, Suzhou, China). The binding specificity of the peptides was tested in a competitive assay. C6 cells were grown to 70-80% confluence and removed from the culture, centrifuged and re-suspended to 2×10^6/ml in PBS/0.05% FBS.DSLET-FITC (3.5 nM) was mixture with 0, 3.5, 10, 50 or 100 nM of peptide. In parallel, 2 nM DAMGO-FITC was mixture with 0, 2, 10, 50 or 100 nM of peptide. These mixtures (500 μl) were added to the cells for 5 min at 37° C. Then 500 μl PBS was added and the tubes centrifuge for 5 min at 4250 rpm. The cell pellet was re-suspended in PBS and analyzed by flow cytometry.

δ-opioid receptor = molecular target: T3, δ-opioid receptor (Rattus norvegicus, UniProt P33533); test: Competitive flow cytometry assay of free peptides against DSLET-FITC on C6 cells; type: binding; conditions: 100 nM peptide, 3.5 nM DSLET-FITC
T3 construct: delta opioid receptor expressed by the C6 cells; endogenous in cells; host or cells: C6 glioma cells
T3 sequence (P33533 whole entry): as the sequence (P33533 whole entry) above
Method: as §2

[1] = molecular target: T4, δ-opioid receptor (DOR) expressed on C6 cells (Rattus norvegicus, UniProt P33533); test: Intracellular cyclic AMP in C6 cells (Direct cAMP kit / cAMP ELISA); type: cell-based; conditions: for reduction of cAMP levels: 100 nM, C6 cells
T4 construct: delta opioid receptor expressed by the C6 cells; endogenous in cells; host or cells: C6 glioma cells
T4 sequence (P33533 whole entry): as above
Method: To test the pharmacological function of the peptides showing positive competitive binding versus the DSLET analogue and negative competition versus the DMGO analogue were tested for agonistic activity using the Direct cAMP kit (Enzo). The analogue DSLET was used as a positive control.

[2] = molecular target: T5, delta opioid receptor expressed by the C6 cells (Rattus norvegicus, UniProt P33533); test: FACS analysis of GNP-peptide binding to C6 cells
T5 construct: delta opioid receptor expressed by the C6 cells; endogenous in cells; host or cells: C6 glioma cells
T5 sequence (P33533 whole entry): as above
Method: as §1
Cells were incubated with GNP-peptide for 15 min at 37° C. and then washed with PBS, followed by trypsin treatment. Then, cells were centrifuged twice (5 min in 1000 rpm) to wash out unbound nanoparticles. Cells were analyzed for cell-associated NPs by Flow Cytometry (FACS; Cellquest software; Becton-Dickinson & Co., Franklin Lakes, N.J.).

With CTAP [reference compound] the cue-induced cocaine-seeking behavior (Sprague-Dawley rats; intra-NAc injection, 3 μg and 30 ng, 1 day or 30 days of forced abstinence) was “no behavioral effect”.

For `Oc1ccc2c3c1O[C@H]1c4[nH]c5ccccc5c4C[C@@]4(O)[C@@H](C2)N(CC2CC2)CC[C@]314` [naltrindole, reference compound], the “binding of GNP conjugated peptide 1 to the cells membrane after blocking the DOR” value (C6 cells membrane (DOR)) was “significant decrease in the binding; also recorded: prevented the binding of the peptide to the cells membrane” and the cue-induced cocaine-seeking behavior (Sprague-Dawley rats; intra-NAc infusion, 1 μg, day 1 of forced abstinence) was “increased cue-induced cocaine-seeking behavior”.

NGNDRTDQMPLP [Peptide 1] was tested, and the “inhibition of DAMGO-FITC binding to the μ-opioid receptor” value (μ-opioid receptor) was “neither Peptide 1 or 2 inhibited binding”, the “maximum inhibition of DSLET-FITC binding” value (δ-opioid receptor) was 48% and the “active lever presses vs CSF group” value (Sprague-Dawley rats; injection into the NAc, two doses) was “decreased active lever presses”. The “reduction of cAMP levels” value [1] was about 80%.

With “peptide 1 conjugated to gold nanoparticles: 20 nm PEG-coated gold nanoparticles with the peptide covalently conjugated to the carboxylic group of SH-PEG-COOH (NGNDRTDQMPLP; also: covalently conjugated to carboxyl of SH-PEG-COOH on 20 nm PEG-coated gold nanoparticles, site not given here)” the “binding to the C6 cells membrane (microscope)” value (C6 cells membrane (DOR); listed as Gold nanoparticle (GNP) conjugated peptide 1) was “bind mainly the C6 cells membrane”, the “binding to the C6 cells membrane (microscope)” value (C6 cells membrane (DOR); listed as Peptide 1 conjugated to GNP) was “increased binding to the C6 cells membrane” and the “active lever presses vs CSF group” value (Sprague-Dawley rats; GNP conjugate, injection into the NAc) was “decreased active lever presses”. For the same molecule, the “active lever presses vs CSF group” value (Sprague-Dawley rats; GNP conjugate, intra-nasal, tested two hours later) was “Significantly less active lever presses”, the “cAMP decreased to % from the initiation state” value ([1]; GNP conjugated to peptide 1, C6 cells) was 80.70% and the “binding to the delta opioid receptor on C6 cells by FACS relative to vehicle” value [2] was “higher affinity and exhibited better binding to the cells relative to vehicle”.

For IIAGEYKQMLTL [Peptide 2], the “inhibition of DAMGO-FITC binding to the μ-opioid receptor” value (μ-opioid receptor) was “neither Peptide 1 or 2 inhibited binding”, the “maximum inhibition of DSLET-FITC binding” value (δ-opioid receptor) was 45% and the “reduction of cAMP levels” value [1] was about 80%.

With DPDPE [reference compound] the “active lever presses (seeking behavior) vs CSF group” value (Sprague-Dawley rats; injected into the NAc once after 30 days of abstinence, observed at days 30 and 60) was “reduced seeking behavior”.
